Where a chain is given by its changes, count along the chain named.
B1: Y-Aib-EGT-αMeF(2F)-TSD-4Pal-SI-αMeL-LD-Orn-K((2-[2-(2-Amino-ethoxy)-ethoxy]-acetyl)3-(γ-Glu)-CO-(CH2)14-CH3)AQ-Aib-EFI-(D-Glu)-αMeY-LIEGGK((2-[2-(2-Amino-ethoxy … (peptide)
peptide: YXEGTXTSDXSIXLDXKAQXEFIXXLIEGGKSSGAPPPS
modifications: Aib2, αMeF(2F)6, 4Pal10, αMeL13, Orn16, K17(Z1), Aib20, D-Glu24, αMeY25, K31(Z1), C-term NH2; Z1=AEEA3-(γ-Glu)-CO-(CH2)14-CH3
B2: Y-Aib-EGT-αMeF(2F)-TSD-4Pal-SI-αMeL-LD-Orn-K((2-[2-(2-Amino-ethoxy)-ethoxy]-acetyl)2-CO-(CH2)12-CO2H)AQ-Aib-EFI-(D-Glu)-αMeY-LIEGGK((2-[2-(2-Amino-ethoxy)-ethox … (peptide)
peptide: B1 peptide
modifications: Aib2, αMeF(2F)6, 4Pal10, αMeL13, Orn16, K17(Z1), Aib20, D-Glu24, αMeY25, K31(Z1), C-term NH2; Z1=AEEA2-CO-(CH2)12-CO2H
B3: Y-Aib-EGT-αMeF(2F)-TSD-4Pal-SI-αMeL-LD-Orn-K((2-[2-(2-Amino-ethoxy)-ethoxy]-acetyl)2-(εK)-CO-(CH2)12-CO2H)AQ-Aib-EFI-(D-Glu)-αMeY-LIEGGK((2-[2-(2-Amino-ethoxy)- … (peptide)
peptide: B1 peptide
modifications: Aib2, αMeF(2F)6, 4Pal10, αMeL13, Orn16, K17(Z1), Aib20, D-Glu24, αMeY25, K31(Z1), C-term NH2; Z1=AEEA2-(εK)-CO-(CH2)12-CO2H
B4: Y-Aib-EGT-αMeF(2F)-TSD-4Pal-SI-αMeL-LD-Orn-K((εK)-(εK)-(γ-Glu)-CO-(CH2)12-CO2H)AQ-Aib-EFI-(D-Glu)-αMeY-LIEGGK((εK)-(εK)-(γ-Glu)-CO-(CH2)12-CO2H)SSGAPPPS-NH2 (peptide)
peptide: B1 peptide
modifications: Aib2, αMeF(2F)6, 4Pal10, αMeL13, Orn16, K17(Z1), Aib20, D-Glu24, αMeY25, K31(Z1), C-term NH2; Z1=(εK)-(εK)-(γ-Glu)-CO-(CH2)12-CO2H
B5: Y-Aib-EGT-αMeF(2F)-TSD-4Pal-SI-αMeL-LD-Orn-K((εK)-(γ-Glu)-(γ-Glu)-CO-(CH2)12-CO2H)AQ-Aib-EFI-(D-Glu)-αMeY-LIEGGK((εK)-(γ-Glu)-(γ-Glu)-CO-(CH2)12-CO2H)SSGAPPPS-N … (peptide)
peptide: B1 peptide
modifications: Aib2, αMeF(2F)6, 4Pal10, αMeL13, Orn16, K17(Z1), Aib20, D-Glu24, αMeY25, K31(Z1), C-term NH2; Z1=(εK)-(γ-Glu)-(γ-Glu)-CO-(CH2)12-CO2H
B6: Y-Aib-EGT-αMeF(2F)-TSD-4Pal-SI-αMeL-LD-Orn-K((2-[2-(2-Amino-ethoxy)-ethoxy]-acetyl)-(εK)-(γ-Glu)-CO-(CH2)12-CO2H)AQ-Aib-EFI-(D-Glu)-αMeY-LIEGGK((2-[2-(2-Amino-e … (peptide)
peptide: B1 peptide
modifications: Aib2, αMeF(2F)6, 4Pal10, αMeL13, Orn16, K17(Z1), Aib20, D-Glu24, αMeY25, K31(Z1), C-term NH2; Z1=AEEA-(εK)-(γ-Glu)-CO-(CH2)12-CO2H
B7: Y-Aib-EGT-αMeF(2F)-TSD-4Pal-SI-αMeL-LD-Orn-K((εK)-(2-[2-(2-Amino-ethoxy)-ethoxy]-acetyl)-(γ-Glu)-CO-(CH2)12-CO2H)AQ-Aib-EFI-(D-Glu)-αMeY-LIEGGK((εK)-(2-[2-(2-Am … (peptide)
peptide: B1 peptide
modifications: Aib2, αMeF(2F)6, 4Pal10, αMeL13, Orn16, K17(Z1), Aib20, D-Glu24, αMeY25, K31(Z1), C-term NH2; Z1=(εK)-AEEA-(γ-Glu)-CO-(CH2)12-CO2H
B8: Y-Aib-EGT-αMeF(2F)-TSD-4Pal-SI-αMeL-LD-Orn-K((εK)-(γ-Glu)-CO-(CH2)12-CO2H)AQ-Aib-EFI-(D-Glu)-αMeY-LIEGGK((εK)-(γ-Glu)-CO-(CH2)12-CO2H)SSGAPPPS-NH2 (peptide)
peptide: B1 peptide
modifications: Aib2, αMeF(2F)6, 4Pal10, αMeL13, Orn16, K17(Z1), Aib20, D-Glu24, αMeY25, K31(Z1), C-term NH2; Z1=(εK)-(γ-Glu)-CO-(CH2)12-CO2H
B9: Y-Aib-EGT-αMeF(2F)-TSD-4Pal-SI-αMeL-LD-Orn-K((2-[2-(2-Amino-ethoxy)-ethoxy]-acetyl)2-(γ-Glu)-CO-(CH2)14-CH3)AQ-Aib-EFI-(D-Glu)-αMeY-LIEGK((2-[2-(2-Amino-ethoxy) … (peptide)
peptide: B1 peptide with G30K, K31P
modifications: Aib2, αMeF(2F)6, 4Pal10, αMeL13, Orn16, K17(Z1), Aib20, D-Glu24, αMeY25, K30(Z1), C-term NH2; Z1=AEEA2-(γ-Glu)-CO-(CH2)14-CH3
B10: Y-Aib-EGT-αMeF(2F)-TSD-4Pal-SI-αMeL-LD-Orn-IAQ-Aib-EFI-(D-Glu)-αMeY-LIK((2-[2-(2-Amino-ethoxy)-ethoxy]-acetyl)2-(γ-Glu)-CO-(CH2)12-CO2H)GGK((2-[2-(2-Amino-ethox … (peptide)
peptide: B1 peptide with K17I, E28K
modifications: Aib2, αMeF(2F)6, 4Pal10, αMeL13, Orn16, Aib20, D-Glu24, αMeY25, K28(Z1), K31(Z1), C-term NH2; Z1=AEEA2-(γ-Glu)-CO-(CH2)12-CO2H
B11: Y-Aib-EGT-αMeF(2F)-TSD-4Pal-SI-αMeL-LD-Orn-IAQ-Aib-EFI-(D-Glu)-αMeY-LIK((2-[2-(2-Amino-ethoxy)-ethoxy]-acetyl)2-(γ-Glu)-CO-(CH2)14-CH3)GGK((2-[2-(2-Amino-ethoxy … (peptide)
peptide: B1 peptide with K17I, E28K
modifications: Aib2, αMeF(2F)6, 4Pal10, αMeL13, Orn16, Aib20, D-Glu24, αMeY25, K28(Z1), K31(Z1), C-term NH2; Z1=AEEA2-(γ-Glu)-CO-(CH2)14-CH3
B12: Y-Aib-EGT-αMeF(2F)-TSD-4Pal-SI-αMeL-LD-Orn-K((2-[2-(2-Amino-ethoxy)-ethoxy]-acetyl)2-(γ-Glu)-CO-(CH2)14-CH3)AQ-Aib-K((2-[2-(2-Amino-ethoxy)-ethoxy]-acetyl)2-(γ- … (peptide)
peptide: B1 peptide with E21K, K31P
modifications: Aib2, αMeF(2F)6, 4Pal10, αMeL13, Orn16, K17(Z1), Aib20, K21(Z1), D-Glu24, αMeY25, C-term NH2; Z1=AEEA2-(γ-Glu)-CO-(CH2)14-CH3
B13: Y-Aib-EGT-αMeF(2F)-TSD-4Pal-SI-αMeL-LD-Orn-K((2-[2-(2-Amino-ethoxy)-ethoxy]-acetyl)2-(γ-Glu)-CO-(CH2)14-CH3)AQ-Aib-EFI-(D-Glu)-αMeY-LIK((2-[2-(2-Amino-ethoxy)-e … (peptide)
peptide: B1 peptide with E28K, K31P
modifications: Aib2, αMeF(2F)6, 4Pal10, αMeL13, Orn16, K17(Z1), Aib20, D-Glu24, αMeY25, K28(Z1), C-term NH2; Z1=AEEA2-(γ-Glu)-CO-(CH2)14-CH3
B14: Y-Aib-EGT-αMeF(2F)-TSD-4Pal-SI-αMeL-LD-Orn-IAQ-Aib-K((2-[2-(2-Amino-ethoxy)-ethoxy]-acetyl)2-(γ-Glu)-CO-(CH2)12-CO2H)FI-(D-Glu)-αMeY-LIK((2-[2-(2-Amino-ethoxy)- … (peptide)
peptide: B1 peptide with K17I, E21K, E28K, K31P
modifications: Aib2, αMeF(2F)6, 4Pal10, αMeL13, Orn16, Aib20, K21(Z1), D-Glu24, αMeY25, K28(Z1), C-term NH2; Z1=AEEA2-(γ-Glu)-CO-(CH2)12-CO2H
B15: Y-Aib-EGT-αMeF(2F)-TSD-4Pal-SI-αMeL-LD-Orn-K((2-[2-(2-Amino-ethoxy)-ethoxy]-acetyl)2-CO-(CH2)12-CO2H)AQ-Aib-K((2-[2-(2-Amino-ethoxy)-ethoxy]-acetyl)2-CO-(CH2)12 … (peptide)
peptide: B1 peptide with E21K, K31P
modifications: Aib2, αMeF(2F)6, 4Pal10, αMeL13, Orn16, K17(Z1), Aib20, K21(Z1), D-Glu24, αMeY25, C-term NH2; Z1=AEEA2-CO-(CH2)12-CO2H
B16: Y-Aib-EGT-αMeF(2F)-TSD-4Pal-SI-αMeL-LD-Orn-K((2-[2-(2-Amino-ethoxy)-ethoxy]-acetyl)2-(γ-Glu)-CO-(CH2)10-CH3)AQ-Aib-K((2-[2-(2-Amino-ethoxy)-ethoxy]-acetyl)2-(γ- … (peptide)
peptide: B1 peptide with E21K, K31P
modifications: Aib2, αMeF(2F)6, 4Pal10, αMeL13, Orn16, K17(Z1), Aib20, K21(Z1), D-Glu24, αMeY25, C-term NH2; Z1=AEEA2-(γ-Glu)-CO-(CH2)10-CH3

What was measured:
[1] = target: T1, human GIP receptor (human, UniProt P48546 22-466); test: SPA competition vs [125I]-GIP, hGIPR membranes
T1 construct: whole, on cells; also called hGIPR; human glucose-dependent insulinotropic polypeptide receptor
T1 sequence (looked up): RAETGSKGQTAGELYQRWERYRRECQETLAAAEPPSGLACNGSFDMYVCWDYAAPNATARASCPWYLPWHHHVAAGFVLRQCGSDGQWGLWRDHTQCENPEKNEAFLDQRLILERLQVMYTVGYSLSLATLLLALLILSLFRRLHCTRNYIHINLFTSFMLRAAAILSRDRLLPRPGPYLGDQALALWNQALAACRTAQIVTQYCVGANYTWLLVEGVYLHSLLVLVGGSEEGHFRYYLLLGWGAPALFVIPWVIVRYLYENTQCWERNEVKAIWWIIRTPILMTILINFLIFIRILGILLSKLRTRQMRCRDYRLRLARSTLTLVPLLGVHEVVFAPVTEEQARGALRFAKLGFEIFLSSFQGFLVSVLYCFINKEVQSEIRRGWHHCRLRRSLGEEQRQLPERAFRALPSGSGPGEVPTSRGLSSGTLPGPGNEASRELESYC
Method: The binding buffer contains 25 mM HEPES, pH 7.4, 2.5 mM CaCl₂, 1 mM MgCl₂, 0.1% (w/v) bacitracin, 0.003% (w/v) TWEEN®-20, and Roche Complete™ Protease Inhibitors without EDTA. […] Plates are sealed and mixed on a plate shaker (setting 6) for 1 minute and read with a PerkinElmer Trilux MicroBeta® scintillation counter after 2.5 to 12 hours of incubation/settling time at room temperature.
(§1) Data are analyzed using four-parameter (curve maximum, curve minimum, IC₅₀, Hill slope) nonlinear regression routines (Genedata Screener, version 12.0.4, Genedata AG, Basal, Switzerland). […] Values for Kᵢ are reported as the geometric mean, with error expressed as the standard error of the mean (SEM) and n is equal to the number of independent replicates (determined in assays performed on different days). Geometric Means are calculated as follows: […]

[2] = target: T2, human glucagon receptor (human, UniProt P47871 26-477); test: SPA competition vs [125I]-Gcg, hGcgR membranes
T2 construct: whole, on cells; also called hGCGR; hGcgR
Method: The binding buffer contains 25 mM 4-(2-hydroxyethyl)-1-piperazineethanesulfonic acid (HEPES), pH 7.4, 2.5 mM CaCl₂, 1 mM MgCh, 0.1% (w/v) bacitracin (Research Products), 0.003% (w/v) Polyoxyethylenesorbitan monolaurate (TWEEN®-20), and Roche Complete™ Protease Inhibitors without EDTA. […] Plates are sealed and mixed on a plate shaker (setting 6) for 1 minute and read with a PerkinElmer Trilux MicroBeta® scintillation counter after 12 hours of incubation/settling time at room temperature.
Data are analyzed using four-parameter (curve maximum, curve minimum, IC₅₀, Hill slope) nonlinear regression routines (Genedata Screener, version 12.0.4, Genedata AG, Basal, Switzerland). […] Values for Kᵢ are reported as the geometric mean, with error expressed as the standard error of the mean (SEM) and n is equal to the number of independent replicates (determined in assays performed on different days).

[3] = target: T3, human GLP-1 receptor (human, UniProt P43220 24-463); test: SPA competition vs [125I]-GLP-1, hGLP-1R membranes
T3 construct: whole, on cells; also called hGLP-1R; human glucagon-like peptide-1 receptor
Method: The binding buffer contains 25 mM HEPES, pH 7.4, 2.5 mM CaCl₂, 1 mM MgCl₂, 0.1% (w/v) bacitracin, 0.003% (w/v) TWEEN®-20, and Roche Complete™ Protease Inhibitors without EDTA.
as §1

T2 sequence (P47871 26-477): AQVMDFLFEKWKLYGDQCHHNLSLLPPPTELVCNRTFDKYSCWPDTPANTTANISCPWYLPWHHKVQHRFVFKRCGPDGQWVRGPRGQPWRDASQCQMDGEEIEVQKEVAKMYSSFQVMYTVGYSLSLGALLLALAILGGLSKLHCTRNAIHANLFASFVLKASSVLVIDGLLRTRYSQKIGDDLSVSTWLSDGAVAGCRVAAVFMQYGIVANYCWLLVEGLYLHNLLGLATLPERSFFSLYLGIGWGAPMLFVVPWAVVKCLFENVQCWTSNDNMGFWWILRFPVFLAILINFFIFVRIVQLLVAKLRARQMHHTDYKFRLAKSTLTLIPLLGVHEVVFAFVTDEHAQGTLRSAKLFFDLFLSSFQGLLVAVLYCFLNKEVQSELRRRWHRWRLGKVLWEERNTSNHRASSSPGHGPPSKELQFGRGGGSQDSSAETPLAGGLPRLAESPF

| Binder | Ki [1] [pM] | Ki [2] [pM] | Ki [3] [pM] |
| --- | --- | --- | --- |
| B1 | 30.8 | 620 | – |
| B2 | 55.7 | 209000 | – |
| B3 | 117 | 264000 | 1340 |
| B4 | 163 | 223000 | 1600 |
| B5 | 234 | 412000 | 1690 |
| B6 | 77 | 868000 | 1380 |
| B7 | 103 | 611000 | 1470 |
| B8 | 60.8 | 174000 | 803 |
| B9 | 36.1 | 646 | 520 |
| B10 | 72.2 | 139000 | 1960 |
| B11 | 86.3 | 3820 | 867 |
| B12 | 23.1 | 293 | 246 |
| B13 | 23.8 | 1180 | 251 |
| B14 | 45.4 | 53900 | 3380 |
| B15 | 62.7 | 625000 | 881 |
| B16 | 40.3 | 8290 | 250 |
